# Target: full-length E. coli ClpX (E. coli) (UniProt P0A6H1)
substance,measurement,value
FITC-casein,"rate of ClpP degradation of FITC-casein (50 µM, 30 °C) supported by full-length ∆NPS ClpX against wild-type ClpX (against ~10-fold for ∆NPS ClpX^∆N over ClpX^∆N)",2 fold

# Reference: PMC10638403
